Test results: paper PMC4935573
“And” between values parts separate entries of the source, which are not always exact repeats. Equal entries are not always repeated.

Key:
[1] = target: regulatory domain of human tryptophan hydroxylase 1, C64S (RDTPH1 C64S) (human) (UniProt P17752); test: AUC
[2] = target: regulatory domain of human tryptophan hydroxylase 1, C64S (RDTPH1 C64S) (human) (UniProt P17752); test: SEC
[3] = target: regulatory domain of human tryptophan hydroxylase 1, C64S (RDTPH1 C64S) (human) (UniProt P17752); test: SEC; remark: listed apart in the source

stoichiometry N [1]: 2
stoichiometry N [2]: 2 and 4
stoichiometry N [3]: 2
Substance: regulatory domain of human tryptophan hydroxylase 1, C64S (RDTPH1 C64S) (from UniProt P17752 1-101) (domain or fragment)
